Measurements from IntAct's records for PubMed 16888620.

B1: Serine/threonine-protein kinase Sgk3 (Homo sapiens), Q96BR1 (parent)
chain: MQRDHTMDYKESCPSVSIPSSDEHREKKKRFTVYKVLVSVGRSEWFVFRRYAEFDKLYNTLKKQFPAMALKIPAKRIFGDNFDPDFIKQRRAGLNEFIQNLVRYPELYNHPDVRAFLQMDSPKHQSDPSEDEDERSSQKLHSTSQNINLGPSGNPHAKPTDFDFLKVIGKGSFGKVLLAKRKLDGKFYAVKVLQKKIVLNRKEQKHIMAERNVLLKNVKHPFLVGLHYSFQTTEKLYFVLDFVNGGELFFHLQRERSFPEHRARFYAAEIASALGYLHSIKIVYRDLKPENILLDSVGHVVLTDFGLCKEGIAISDTTTTFCGTPEYLAPEVIRKQPYDNTVDWWCLGAVLYEMLYGLPPFYCRDVAEMYDNILHKPLSLRPGVSLTAWSILEELLEKDRQNRLGAKEDFLEIQNHPFFESLSWADLVQKKIPPPFNPNVAGPDDIRNFDTAFTEETVPYSVCVSSDYSIVNASVLEADDAFVGFSYAPPSEDLFL

Variants of: B1
Conditions: with itch_human ITCH

| effect of a mutation on the interaction | Variant |
| --- | --- |
| decreasing interaction | Y362A |
